This test has as its target wild-type PaCLPP (Podospora anserina (endogenous in P. anserina mitochondria)). The test is described as follows: native gel or EMSA; BN-PAGE of mitochondrial protein extracts from P. anserina strains, western blot with a PaCLPP- or HsCLPP-specific antibody. For orientation: In EMSA bound probe runs differently from free probe, usually more slowly.

Where “and” joins values, the source holds several entries; their conditions need not be identical. Identical values can stand only once.

For orientation: stoichiometry N means the number of molecules, sites or subunits per partner or assembly. Regarding wild-type PaCLPP (enzyme), the stoichiometry N is 7 and 14.

Values taken from paper PMC4683621.
